Measurements published in publication PMC5568661.
Like-named read-outs stand apart in the source and are kept apart here.

How the values were obtained:
Assay in all cases: NMR 15N-HSQC titration
Ets-1 ΔN301 [1] = molecular target: T1, Ets-1 ΔN301 (murine, UniProt P27577 301-440)
T1 sequence: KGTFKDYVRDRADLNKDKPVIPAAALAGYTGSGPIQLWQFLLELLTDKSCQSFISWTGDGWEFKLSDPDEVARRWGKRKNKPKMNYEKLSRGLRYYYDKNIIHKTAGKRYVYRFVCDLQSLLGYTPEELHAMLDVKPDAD

Ets-1 ΔN301 [2] = molecular target: T1, Ets-1 ΔN301; remark: listed apart in the source
Ets-1 ΔN301 [3] = molecular target: T1, Ets-1 ΔN301; remark: listed apart in the source
Ets-1 ΔN279 = molecular target: T2, Ets-1 ΔN279 (murine, UniProt P27577 279-440)
T2 sequence: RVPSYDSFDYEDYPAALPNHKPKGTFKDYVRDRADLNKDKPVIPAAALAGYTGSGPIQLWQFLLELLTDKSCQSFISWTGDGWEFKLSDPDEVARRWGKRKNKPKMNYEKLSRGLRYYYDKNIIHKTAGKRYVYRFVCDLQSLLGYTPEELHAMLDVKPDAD

Ets-1 ΔN301 [4] = molecular target: T1, Ets-1 ΔN301; remark: listed apart in the source

B1: DNASP12 (dsDNA)
DNA 1: CAGCCGGAAGTG
DNA 2: CACTTCCGGCTG
**Q.** Does B1 bind (Ets-1 ΔN301 [1])?
**A.** binds

B2: DNANSP9 (dsDNA)
DNA 1: GCACTCTAG
DNA 2: CTAGAGTGC
**Q.** B2 was tested. Which Kd (Ets-1 ΔN301 [2]) did it give?
**A.** ~10 µM

B3: DNASP9 (dsDNA)
DNA 1: GCCGGAAGT
DNA 2: ACTTCCGGC
**Q.** Does B3 bind (Ets-1 ΔN301 [3])?
**A.** binds

B4: DNASP14 (dsDNA)
DNA 1: CCAAGCCGGAAGTG
DNA 2: CACTTCCGGCTTGG
**Q.** Does B4 bind (Ets-1 ΔN279)?
**A.** binds

B5: DNANSP15 (dsDNA)
DNA 1: GATGCAGTGTAGTCG
DNA 2: CGACTACACTGCATC
**Q.** With B5 as the binder, how does the Kd (Ets-1 ΔN301 [4]) read?
**A.** < 10 µM
